In patent publication US20190211111A1:

The substances below were run against GCN4 peptide-fused αCD19 Fab (Rodgers et al.) (assay: ELISA, coated GCN4 peptide-fused αCD19 Fab, detection with anti-human lambda-HRP).

Row | EC50 [nM] | Substance
1 | 1 | αGCN4-Fab (LC-S155X, HC-K129X, X=pAcF)
2 | 1 | αGCN4-Fab (LC-G202X, HC-K129X, X=pAcF)
3 | 1 | αGCN4-Fab (LC-S193X, HC-K129X, X=pAcF)
